Non-standard residues stand in square brackets, D forms with d. No end group written: not given here. αMeF = C[C@](N)(Cc1ccccc1)C(=O)O; αMeK = C[C@](N)(CCCCN)C(=O)O; αMeS = C[C@](N)(CO)C(=O)O; Aib = CC(C)(N)C(=O)O
T1: glucose-dependent insulinotropic peptide (gastric inhibitory polypeptide) receptor (human, UniProt P48546 22-466)
T1 sequence (looked up): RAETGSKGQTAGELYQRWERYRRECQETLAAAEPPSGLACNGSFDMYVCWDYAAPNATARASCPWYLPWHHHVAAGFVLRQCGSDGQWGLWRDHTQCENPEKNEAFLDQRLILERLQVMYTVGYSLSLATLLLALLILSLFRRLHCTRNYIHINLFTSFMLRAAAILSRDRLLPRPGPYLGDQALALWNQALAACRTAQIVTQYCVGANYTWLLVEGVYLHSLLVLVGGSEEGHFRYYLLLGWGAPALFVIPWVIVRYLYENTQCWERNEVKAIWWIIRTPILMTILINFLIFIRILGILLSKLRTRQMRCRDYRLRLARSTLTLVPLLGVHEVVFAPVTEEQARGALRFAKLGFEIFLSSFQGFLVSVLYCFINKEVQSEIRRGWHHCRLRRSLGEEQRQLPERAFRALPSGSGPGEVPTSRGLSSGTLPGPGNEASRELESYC


What was measured:
Test in all cases: cell-based or functional assay
GLP-1 receptor = GLP-1 receptor (human, UniProt P43220 24-463)
glucagon receptor = glucagon receptor (human, UniProt P47871 26-477)
Sequence of glucagon receptor (P47871 26-477): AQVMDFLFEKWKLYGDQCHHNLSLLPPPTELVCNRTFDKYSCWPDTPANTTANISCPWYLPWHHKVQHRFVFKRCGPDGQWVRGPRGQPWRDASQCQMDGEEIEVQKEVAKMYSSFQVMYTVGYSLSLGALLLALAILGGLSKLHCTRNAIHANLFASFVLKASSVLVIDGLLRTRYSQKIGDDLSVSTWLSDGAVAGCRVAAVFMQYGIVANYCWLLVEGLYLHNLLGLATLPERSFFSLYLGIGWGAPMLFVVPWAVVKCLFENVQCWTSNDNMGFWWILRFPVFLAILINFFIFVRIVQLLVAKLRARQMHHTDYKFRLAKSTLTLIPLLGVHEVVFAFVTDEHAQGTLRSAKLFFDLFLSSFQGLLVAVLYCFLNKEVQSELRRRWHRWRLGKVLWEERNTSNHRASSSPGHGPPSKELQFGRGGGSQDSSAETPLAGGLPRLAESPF

[1] = target: T1, glucose-dependent insulinotropic …

Binder | Primary assay EC50 (cAMP), Mean pM GLP-1R (GLP-1 receptor) [pM] | Primary assay EC50 (cAMP), n1 (GLP-1 receptor) [nM] | Primary assay EC50 (cAMP), n2 (GLP-1 receptor) [nM] | Primary assay EC50 (cAMP), n1 (glucagon receptor) [nM] | Primary assay EC50 (cAMP), n2 (glucagon receptor) [nM] | Primary assay EC50 (cAMP), n1 [1] [nM] | Primary assay EC50 (cAMP), n2 [1] [nM]
H[Aib]EGS[αMeF]TDDV[αMeS]S[αMeF]LEGEAA[αMeK]E[αMeF]IA[αMeF]VV[αMeK]GG-NH2 (N-terminus assumed; SMILES CC[C@H](C)[C@H](NC(=O)[C@](C)(Cc1ccccc1)NC(=O)[C@H](CCC(=O)O)NC(=O)[C@](C)(CCCCN)NC(=O)[C@H](C)NC(=O)[C@H](C)NC(=O)[C@H](CCC(=O)O)NC(=O)CNC(=O)[C@H](CCC(=O)O)NC(=O)[C@H](CC(C)C)NC(=O)[C@](C)(Cc1ccccc1)NC(=O)[C@H](CO)NC(=O)[C@](C)(CO)NC(=O)[C@@H](NC(=O)[C@H](CC(=O)O)NC(=O)[C@H](CC(=O)O)NC(=O)[C@@H](NC(=O)[C@](C)(Cc1ccccc1)NC(=O)[C@H](CO)NC(=O)CNC(=O)[C@H](CCC(=O)O)NC(=O)C(C)(C)NC(=O)[C@@H](N)Cc1c[nH]cn1)[C@@H](C)O)C(C)C)C(=O)N[C@@H](C)C(=O)N[C@@](C)(Cc1ccccc1)C(=O)N[C@H](C(=O)N[C@H](C(=O)N[C@@](C)(CCCCN)C(=O)NCC(=O)NCC(N)=O)C(C)C)C(C)C) [SEQ ID NO 27] | 446 | 0.42 | 0.48 | 100 | 40 | 100 | 100
H[Aib]EGS[αMeF]T[αMeS]DV[αMeS]S[αMeF]LEGEAA[αMeK]E[αMeF]IA[αMeF]VV[αMeK]GG-NH2 (N-terminus assumed; SMILES CC[C@H](C)[C@H](NC(=O)[C@](C)(Cc1ccccc1)NC(=O)[C@H](CCC(=O)O)NC(=O)[C@](C)(CCCCN)NC(=O)[C@H](C)NC(=O)[C@H](C)NC(=O)[C@H](CCC(=O)O)NC(=O)CNC(=O)[C@H](CCC(=O)O)NC(=O)[C@H](CC(C)C)NC(=O)[C@](C)(Cc1ccccc1)NC(=O)[C@H](CO)NC(=O)[C@](C)(CO)NC(=O)[C@@H](NC(=O)[C@H](CC(=O)O)NC(=O)[C@](C)(CO)NC(=O)[C@@H](NC(=O)[C@](C)(Cc1ccccc1)NC(=O)[C@H](CO)NC(=O)CNC(=O)[C@H](CCC(=O)O)NC(=O)C(C)(C)NC(=O)[C@@H](N)Cc1c[nH]cn1)[C@@H](C)O)C(C)C)C(=O)N[C@@H](C)C(=O)N[C@@](C)(Cc1ccccc1)C(=O)N[C@H](C(=O)N[C@H](C(=O)N[C@@](C)(CCCCN)C(=O)NCC(=O)NCC(N)=O)C(C)C)C(C)C) [SEQ ID NO 18] | 4940 | 4.1 | 5.8 | 100 | 100 | 100 | 100
HXEGTFTSDVSSYLEGQAAKEFIAWLVKGRK (Aib 2; K(ε-γE-Palmitoyl) after R30; C-terminal amide) [SEQ ID NO 5] | 6.5 | 0.0075 | 0.0055 | 81 | 81 | 81 | 81
HXEGTFTSDVXSYLEGQAAKEFIAWLVKGR (Aib 2; Aib 11; C-terminal amide) [SEQ ID NO 22] | 118 | 0.12 | 0.12 | 390 | 240 | 480 | 480
H[Aib]EGS[αMeF]TEDV[αMeS]S[αMeF]LEGEAA[αMeK]E[αMeF]IA[αMeF]VV[αMeK]GG-NH2 (N-terminus assumed; SMILES CC[C@H](C)[C@H](NC(=O)[C@](C)(Cc1ccccc1)NC(=O)[C@H](CCC(=O)O)NC(=O)[C@](C)(CCCCN)NC(=O)[C@H](C)NC(=O)[C@H](C)NC(=O)[C@H](CCC(=O)O)NC(=O)CNC(=O)[C@H](CCC(=O)O)NC(=O)[C@H](CC(C)C)NC(=O)[C@](C)(Cc1ccccc1)NC(=O)[C@H](CO)NC(=O)[C@](C)(CO)NC(=O)[C@@H](NC(=O)[C@H](CC(=O)O)NC(=O)[C@H](CCC(=O)O)NC(=O)[C@@H](NC(=O)[C@](C)(Cc1ccccc1)NC(=O)[C@H](CO)NC(=O)CNC(=O)[C@H](CCC(=O)O)NC(=O)C(C)(C)NC(=O)[C@@H](N)Cc1c[nH]cn1)[C@@H](C)O)C(C)C)C(=O)N[C@@H](C)C(=O)N[C@@](C)(Cc1ccccc1)C(=O)N[C@H](C(=O)N[C@H](C(=O)N[C@@](C)(CCCCN)C(=O)NCC(=O)NCC(N)=O)C(C)C)C(C)C) [SEQ ID NO 28] | 4620 | 4.6 | 4.7 | 100 | 100 | 100 | 100
H[Aib]EGS[αMeF]TADV[αMeS]S[αMeF]LEGEAA[αMeK]E[αMeF]IA[αMeF]VV[αMeK]GG-NH2 (N-terminus assumed; SMILES CC[C@H](C)[C@H](NC(=O)[C@](C)(Cc1ccccc1)NC(=O)[C@H](CCC(=O)O)NC(=O)[C@](C)(CCCCN)NC(=O)[C@H](C)NC(=O)[C@H](C)NC(=O)[C@H](CCC(=O)O)NC(=O)CNC(=O)[C@H](CCC(=O)O)NC(=O)[C@H](CC(C)C)NC(=O)[C@](C)(Cc1ccccc1)NC(=O)[C@H](CO)NC(=O)[C@](C)(CO)NC(=O)[C@@H](NC(=O)[C@H](CC(=O)O)NC(=O)[C@H](C)NC(=O)[C@@H](NC(=O)[C@](C)(Cc1ccccc1)NC(=O)[C@H](CO)NC(=O)CNC(=O)[C@H](CCC(=O)O)NC(=O)C(C)(C)NC(=O)[C@@H](N)Cc1c[nH]cn1)[C@@H](C)O)C(C)C)C(=O)N[C@@H](C)C(=O)N[C@@](C)(Cc1ccccc1)C(=O)N[C@H](C(=O)N[C@H](C(=O)N[C@@](C)(CCCCN)C(=O)NCC(=O)NCC(N)=O)C(C)C)C(C)C) [SEQ ID NO 26] | 123 | 0.099 | 0.15 | 100 | 30 | 100 | 100
HXEGTFTXDVSSYLEGQAAKEFIAWLVKGR (Aib 2; Aib 8; C-terminal amide) [SEQ ID NO 20] | 13400 | 15 | 12 | 290 | 290 | 290 | 290
H[Aib]EGS[αMeF]TGDV[αMeS]S[αMeF]LEGEAA[αMeK]E[αMeF]IA[αMeF]VV[αMeK]GG-NH2 (N-terminus assumed; SMILES CC[C@H](C)[C@H](NC(=O)[C@](C)(Cc1ccccc1)NC(=O)[C@H](CCC(=O)O)NC(=O)[C@](C)(CCCCN)NC(=O)[C@H](C)NC(=O)[C@H](C)NC(=O)[C@H](CCC(=O)O)NC(=O)CNC(=O)[C@H](CCC(=O)O)NC(=O)[C@H](CC(C)C)NC(=O)[C@](C)(Cc1ccccc1)NC(=O)[C@H](CO)NC(=O)[C@](C)(CO)NC(=O)[C@@H](NC(=O)[C@H](CC(=O)O)NC(=O)CNC(=O)[C@@H](NC(=O)[C@](C)(Cc1ccccc1)NC(=O)[C@H](CO)NC(=O)CNC(=O)[C@H](CCC(=O)O)NC(=O)C(C)(C)NC(=O)[C@@H](N)Cc1c[nH]cn1)[C@@H](C)O)C(C)C)C(=O)N[C@@H](C)C(=O)N[C@@](C)(Cc1ccccc1)C(=O)N[C@H](C(=O)N[C@H](C(=O)N[C@@](C)(CCCCN)C(=O)NCC(=O)NCC(N)=O)C(C)C)C(C)C) [SEQ ID NO 25] | 544 | 0.5 | 0.59 | 100 | 22 | 100 | 100
H[Aib]EGTFT[Aib]DV[Aib]SYLEGQAAKEFIAWLVKGR-NH2 (N-terminus assumed; SMILES CC[C@H](C)[C@H](NC(=O)[C@H](Cc1ccccc1)NC(=O)[C@H](CCC(=O)O)NC(=O)[C@H](CCCCN)NC(=O)[C@H](C)NC(=O)[C@H](C)NC(=O)[C@H](CCC(N)=O)NC(=O)CNC(=O)[C@H](CCC(=O)O)NC(=O)[C@H](CC(C)C)NC(=O)[C@H](Cc1ccc(O)cc1)NC(=O)[C@H](CO)NC(=O)C(C)(C)NC(=O)[C@@H](NC(=O)[C@H](CC(=O)O)NC(=O)C(C)(C)NC(=O)[C@@H](NC(=O)[C@H](Cc1ccccc1)NC(=O)[C@@H](NC(=O)CNC(=O)[C@H](CCC(=O)O)NC(=O)C(C)(C)NC(=O)[C@@H](N)Cc1c[nH]cn1)[C@@H](C)O)[C@@H](C)O)C(C)C)C(=O)N[C@@H](C)C(=O)N[C@@H](Cc1c[nH]c2ccccc12)C(=O)N[C@@H](CC(C)C)C(=O)N[C@H](C(=O)N[C@@H](CCCCN)C(=O)NCC(=O)N[C@@H](CCCNC(=N)N)C(N)=O)C(C)C) [SEQ ID NO 24] | 5600 | 3.3 | 7.9 | 740 | 740 | 740 | 740

From patent publication US20200079833A1 (AstraZeneca / MedImmune, published 2020)
